The series relates to T1, Recombinant gasdermin D (rGSDMD), full-length.
T1 sequence: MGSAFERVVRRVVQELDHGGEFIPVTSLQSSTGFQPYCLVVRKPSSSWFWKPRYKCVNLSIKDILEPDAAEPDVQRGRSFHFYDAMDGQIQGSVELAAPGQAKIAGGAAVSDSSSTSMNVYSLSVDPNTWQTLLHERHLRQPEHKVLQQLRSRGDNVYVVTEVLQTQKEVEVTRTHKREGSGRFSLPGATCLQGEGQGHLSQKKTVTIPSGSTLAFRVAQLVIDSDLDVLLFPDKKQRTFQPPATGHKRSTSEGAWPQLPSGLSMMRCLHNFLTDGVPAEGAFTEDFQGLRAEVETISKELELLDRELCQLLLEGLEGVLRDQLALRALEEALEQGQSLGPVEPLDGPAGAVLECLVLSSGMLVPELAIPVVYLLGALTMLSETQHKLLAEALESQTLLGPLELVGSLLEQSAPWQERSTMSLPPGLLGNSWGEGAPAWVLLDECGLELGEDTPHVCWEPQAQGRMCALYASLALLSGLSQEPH

As for Recombinant caspase-1, the “cleavage of recombinant gasdermin D (1 hour at 37 C, SDS-PAGE and protein stain)” value is “resulted in the formation of a ~31 kDa N-terminal domain and ~22 kDa C-terminal domain”.
